18 substances from patent US20190233539A1 can be followed below.

Holding throughout (test): BIAcore SPR, koff against wild-type Fc
Background: In SPR one partner is held on a chip, and binding of the other changes the refractive index at the surface.

The target in test [1] is CD16A with Val at position 158 (human) (UniProt P08637).
In test [2] the target is CD32B (FcγRII-B) (UniProt P31994).
Test [3] deals with CD32A^H (UniProt P12318).
Test [4] deals with CD16A with Phe at position 158 (human) (UniProt P08637).
Sequence of CD16A with Phe at position 158 (human) (P08637 17-208 limits assumed): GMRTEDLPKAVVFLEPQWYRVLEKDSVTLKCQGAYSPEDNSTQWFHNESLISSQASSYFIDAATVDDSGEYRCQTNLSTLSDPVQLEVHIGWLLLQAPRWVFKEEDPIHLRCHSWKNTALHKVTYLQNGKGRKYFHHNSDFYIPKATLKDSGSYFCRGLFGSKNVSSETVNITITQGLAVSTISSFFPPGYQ

Sequence of CD16A with Val at position 158 (human) (P08637 17-208 F176V limits assumed): as the sequence (P08637 17-208 limits assumed) above, with F160V counted along it
Sequence of CD32B (FcγRII-B) (P31994 43-217 limits assumed): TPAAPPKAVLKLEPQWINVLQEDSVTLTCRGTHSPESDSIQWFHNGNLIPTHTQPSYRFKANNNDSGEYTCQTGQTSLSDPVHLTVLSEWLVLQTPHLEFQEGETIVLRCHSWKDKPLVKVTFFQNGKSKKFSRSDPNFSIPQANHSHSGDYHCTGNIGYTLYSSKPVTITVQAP
Sequence of CD32A^H (P12318 34-217 limits assumed): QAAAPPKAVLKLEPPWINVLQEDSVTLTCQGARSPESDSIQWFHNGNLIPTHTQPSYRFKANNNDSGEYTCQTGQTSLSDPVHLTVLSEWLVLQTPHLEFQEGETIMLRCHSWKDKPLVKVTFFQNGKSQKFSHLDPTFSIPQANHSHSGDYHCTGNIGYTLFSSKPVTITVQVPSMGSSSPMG

Consider Fc mutant 1 (F243L), for which the results for the WT koff/mutant koff in test [1], in test [2] and in test [3] were 4.8, 0.8 and 0.6, respectively.
The like results for Fc mutant 2 (D270E) were, in that order, 1.3, 0.4 and 2.2.
Turning to Fc mutant 3 (R292P), the WT koff/mutant koff in test [1] is 2.4; in test [2] it was 0.3; in test [3] it was 0.7; in test [4], 1.6.
The substance Fc mutant 4 (S298N) registered a WT koff/mutant koff in test [2] of 0.2.
Take Fc mutant 5 (Y300L): the WT koff/mutant koff amounted to 1.2 in test [2], 2.9 in test [3] and 1.2 in test [4].
On to Fc mutant 6 (V305I), for which the WT koff/mutant koff in test [1] is 0.9; in test [2] it was 1.2; in test [3], 1.3; in test [4], 0.6.
The like results for Fc mutant 7 (A330V) were, in that order, 0.6, 0.3, 0.4 and 1.2.
With Fc mutant 8 (P396L), the WT koff/mutant koff in test [1] came out at 1.3; in test [2] it was 2.6; in test [3] it was 1.6.
As for Fc mutant 9 (F243L, P396L), the WT koff/mutant koff in test [2] is 1.6; in test [3], 1.5.
For the substance Fc mutant 10 (F243L, R292P), the WT koff/mutant koff in test [1] is 4; in test [2], 0.2; in test [3], 0.5.
Take Fc mutant 11 (R292P, V305I): the WT koff/mutant koff in test [2] worked out at 0.4; in test [3] it was 0.8.
On to Fc mutant 12 (F243L, R292P, Y300L), for which the WT koff/mutant koff in test [1] was found to be 7.4; in test [2], 0.6; in test [3], 1; in test [4], 4.6.
The like results for Fc mutant 13 (F243L, R292P, V305I) were, in that order, 2.6, 0.1, 0.2 and 1.4.
As to Fc mutant 14 (F243L, R292P, P396L), the results for the WT koff/mutant koff in test [1], in test [2] and in test [3] were 6.3, 0.4 and 1.4, respectively.
Fc mutant 15 (R292P, V305I, P396L): the WT koff/mutant koff worked out at 1.9 in test [1], 0.9 in test [2], 1.5 in test [3] and 1.9 in test [4].
Consider “Fc mutant 16 (F243L, R292P, Y300L, P396L)”, for which the WT koff/mutant koff in test [1] is 10.1; in test [2], 1.1; in test [3], 1.7; in test [4], 5.6.
The like results for “Fc mutant 17 (F243L, R292P, V305I, P396L)” were, in that order, 4, 0.4, 0.8 and 2.3.
As to “Fc mutant 18 (F243L, R292P, Y300L, V305I, P396L)”, the WT koff/mutant koff in test [1] was 10.1; in test [2] it was 1.4; in test [3], 3.2; in test [4], 8.3.
